The values below are quoted from earlier work in PMC4372107.

Where “and” joins values, the source holds several entries; their conditions need not be identical. Equal entries are not always repeated.

The target in the data set is U2AF65 RRM123 (Homo sapiens) (UniProt P26368). The data set is described as follows: ITC.
UniProt P26368, sequence (P26368 148-475, one chain of several): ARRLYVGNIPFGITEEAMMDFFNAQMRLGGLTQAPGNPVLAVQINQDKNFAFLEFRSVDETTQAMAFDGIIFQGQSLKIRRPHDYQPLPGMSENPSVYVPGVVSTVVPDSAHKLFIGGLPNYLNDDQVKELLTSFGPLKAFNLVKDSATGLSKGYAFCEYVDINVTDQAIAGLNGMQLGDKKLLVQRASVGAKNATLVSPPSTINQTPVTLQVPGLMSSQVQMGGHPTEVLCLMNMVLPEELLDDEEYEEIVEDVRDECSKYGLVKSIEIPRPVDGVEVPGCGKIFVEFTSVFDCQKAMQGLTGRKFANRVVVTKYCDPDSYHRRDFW

Consider SF1 (from UniProt Q15637), for which the Kd – broadly, the constant that tells how readily two partners part at equilibrium – is 114 nM and 96 nM.
